Experimental data: the supplement of paper PMC7877785
± gives the uncertainty stated by the source.

Assay: self-splicing fitness, log relative to wild type (ln ratio); higher = more splicing; Tetrahymena group I intron in knt gene, E. coli kanamycin selection, DiMSum; sequences stand for … in CUCUCU…GGAGGGAAAAGUUAUCAGGCAUGCACCUGGUAGCUAGUCUUUAAACCAAUAGAUUGCAUCGGUUUAAAAGGCAAGACCGUCAAAUUGCGGGAAAGGGGUCAACAGCCGUUCAGUACCAAGUCUCAGGGGAAACUUUGAGAUGGCCUUGCAAAGGGUAUGGUAAUAAGCUGACGGACAUGGUCCUAACCACGCAGCCAAGUCCUAAGUCAACAGAUCUUCUGUUGAUAUGGAUGCAGUUCACAGACUAAAUGUCGGUCGGGGAAGAUGUAUUCUUCUCAUAAGAUAUAGUCGGACCUCUCCUUAAUGGGAGCUAGCGGAUGAAGUGAUGCAACACUGGAGCCGCUGGGAACUAAUUUGUAUGCGAAAGUAUAUUGAUUAGUUUUGGAGUACUCGUGGUCG
Outline: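 Six replicate transformations of E. coli BL21(DE3) with a pET-22b(+) library were grown overnight at 37°C or 30°C. The library randomised all eight P1ex-region intron nucleotides, the intron lying in the knt kanamycin-resistance gene, and plates were LB agar with or without 25 μg/mL kanamycin plus 100 μg/mL carbenicillin, 50 μM IPTG and 0.2% rhamnose. Pooled colonies were amplicon-sequenced on an Illumina HiSeq 2500, and fitness is the DiMSum error-weighted combination of wild-type-normalised replicate fold changes, kanamycin versus none.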

Sequence | self-splicing fitness (ln) (30 °C) | self-splicing fitness (ln) (37 °C)
UUGAAGCAAUAUUACGCAUA | -0.461 ± 0.072 | 0.189 ± 0.1
UUGAAGCAAUAUUACGCCGA | 0.633 ± 0.2 | 0.737 ± 0.25
UUGAAGCAAUAUUACGCUAU | -2.7 ± 0.25 | -1.45 ± 0.26
UUGAAGCAAUAUUACGCUUU | -3.5 ± 0.23 | -2.56 ± 0.36
UUGAAGCAAUAUUACGGAAC | -3.62 ± 0.32 | -2.08 ± 0.3
UUGAAGCAAUAUUACGGCCU | -0.822 ± 0.13 | -0.147 ± 0.16
UUGAAGCAAUAUUACGGGAC | -2.18 ± 0.3 | -2.34 ± 0.28
UUGAAGCAAUAUUACGUCAA | -0.54 ± 0.083 | 0.078 ± 0.1
UUGAAGCAAUAUUACGUCAC | -3.27 ± 0.21 | -1.25 ± 0.2
UUGAAGCAAUAUUACGUCCU | -0.231 ± 0.18 | -0.346 ± 0.13
UUGAAGCAAUAUUACGUCUA | 0.0429 ± 0.11 | 0.627 ± 0.12
UUGAAGCAAUAUUACGUGGC | -3.36 ± 0.2 | -1.66 ± 0.22
UUGAAGCAAUAUUACGUGUU | -4.53 ± 0.21 | -1.92 ± 0.14
UUGAAGCAAUAUUACGUUAG | -0.587 ± 0.1 | 0.138 ± 0.12
UUGAAGCAAUAUUACGUUUC | -3.35 ± 0.2 | -3.3 ± 0.32
UUGCAGCAAUAUUACGAACA | -0.626 ± 0.17 | -1.24 ± 0.15
UUGCAGCAAUAUUACGAAGC | -2.28 ± 0.3 | -0.93 ± 0.36
UUGCAGCAAUAUUACGAAUC | – | -2.06 ± 0.47
UUGCAGCAAUAUUACGAGUG | -1.61 ± 0.1 | -1.46 ± 0.13
UUGCAGCAAUAUUACGCCGG | -0.957 ± 0.075 | -0.103 ± 0.12
UUGCAGCAAUAUUACGCCUC | -2.47 ± 0.45 | -0.787 ± 0.37
UUGCAGCAAUAUUACGCUGA | -3.27 ± 0.26 | -1.68 ± 0.17
UUGCAGCAAUAUUACGGAAA | -2.52 ± 0.14 | -0.504 ± 0.1
UUGCAGCAAUAUUACGGAAG | -3.02 ± 0.34 | -0.414 ± 0.14
UUGCAGCAAUAUUACGGAGU | -4.51 ± 0.42 | -2.44 ± 0.2
UUGCAGCAAUAUUACGGCUG | -3.43 ± 0.3 | -2.59 ± 0.24

Sequence | self-splicing fitness (ln) (30 °C) | self-splicing fitness (ln) (37 °C)
UUGCAGCAAUAUUACGGUGA | -1.44 ± 0.14 | 0.0799 ± 0.14
UUGCAGCAAUAUUACGGUGC | -3.79 ± 0.26 | -2.67 ± 0.26
UUGCAGCAAUAUUACGUUGG | -2.68 ± 0.15 | -2.42 ± 0.18
UUGGAGCAAUAUUACGAAGA | -2.83 ± 0.41 | -2.53 ± 0.49
UUGGAGCAAUAUUACGACGC | – | -2.47 ± 0.33
UUGGAGCAAUAUUACGAGAC | – | -2.25 ± 0.5
UUGGAGCAAUAUUACGAGAU | -2.83 ± 0.29 | -2.36 ± 0.36
UUGGAGCAAUAUUACGAGGA | -3.13 ± 0.48 | -1.56 ± 0.27
UUGGAGCAAUAUUACGAUGC | -1.76 ± 0.28 | –
UUGGAGCAAUAUUACGCAGA | -2.13 ± 0.33 | -1.13 ± 0.16
UUGGAGCAAUAUUACGCAUG | -3.5 ± 0.26 | -0.58 ± 0.13
UUGGAGCAAUAUUACGCGUC | -4.81 ± 0.29 | -2.77 ± 0.24
UUGGAGCAAUAUUACGCUGA | -1.98 ± 0.17 | -1.5 ± 0.16
UUGGAGCAAUAUUACGCUGG | -1.62 ± 0.34 | -0.962 ± 0.32
UUGGAGCAAUAUUACGGCCA | -2.23 ± 0.19 | -0.299 ± 0.15
UUGGAGCAAUAUUACGGGCG | -3.99 ± 0.39 | -2.13 ± 0.31
UUGGAGCAAUAUUACGGGGG | -2.12 ± 0.39 | -2.14 ± 0.5
UUGGAGCAAUAUUACGGGUA | – | -2.02 ± 0.23
UUGGAGCAAUAUUACGUCCA | -2.2 ± 0.2 | -1.74 ± 0.23
UUGGAGCAAUAUUACGUGAC | -2.9 ± 0.41 | -0.119 ± 0.45
UUGGAGCAAUAUUACGUUUG | -4.04 ± 0.25 | -2.92 ± 0.28
UUGUAGCAAUAUUACGAGCU | -1.88 ± 0.22 | -0.4 ± 0.2
UUGUAGCAAUAUUACGAGUG | -1.69 ± 0.14 | -0.408 ± 0.12
UUGUAGCAAUAUUACGAUGC | – | -1.92 ± 0.43
UUGUAGCAAUAUUACGCAAG | -1.29 ± 0.17 | -0.849 ± 0.2
UUGUAGCAAUAUUACGCGAU | -3.54 ± 0.26 | -2.51 ± 0.25

Sequence | self-splicing fitness (ln) (30 °C) | self-splicing fitness (ln) (37 °C)
UUGUAGCAAUAUUACGCGCG | -1.25 ± 0.12 | -0.356 ± 0.18
UUGUAGCAAUAUUACGCGCU | -2.05 ± 0.16 | -0.976 ± 0.11
UUGUAGCAAUAUUACGCUCU | -1.21 ± 0.2 | -1.29 ± 0.15
UUGUAGCAAUAUUACGCUGU | -3.02 ± 0.35 | -2.49 ± 0.27
UUGUAGCAAUAUUACGGCUC | -1.79 ± 0.31 | 0.26 ± 0.24
UUGUAGCAAUAUUACGGGAA | -2.13 ± 0.17 | -1.32 ± 0.16
UUGUAGCAAUAUUACGGGAU | -4.01 ± 0.29 | -2.78 ± 0.26
UUGUAGCAAUAUUACGGGUC | -3.03 ± 0.22 | -2.83 ± 0.4
UUGUAGCAAUAUUACGUAGG | -2.12 ± 0.15 | -1.04 ± 0.23
UUGUAGCAAUAUUACGUAUC | -4.12 ± 0.31 | -3.03 ± 0.31
UUGUAGCAAUAUUACGUAUU | -3.29 ± 0.32 | -2.45 ± 0.3
UUGUAGCAAUAUUACGUCAC | -2.56 ± 0.39 | –
UUGUAGCAAUAUUACGUCAU | -2.87 ± 0.18 | -1.63 ± 0.13
UUGUAGCAAUAUUACGUCGG | -1.21 ± 0.094 | -0.478 ± 0.093
UUGUAGCAAUAUUACGUGAC | -2.34 ± 0.26 | -1.86 ± 0.33
UUGUAGCAAUAUUACGUGUA | -1.34 ± 0.12 | -1.12 ± 0.15
UUGUAGCAAUAUUACGUGUU | -2.7 ± 0.25 | -2.5 ± 0.24
UUGUAGCAAUAUUACGUUAG | -2.36 ± 0.25 | -1.28 ± 0.21
UUGUAGCAAUAUUACGUUUA | -1.36 ± 0.16 | -1.15 ± 0.17
UUUAAGCAAUAUUACGAAAG | -3.48 ± 0.32 | -1.54 ± 0.25
UUUAAGCAAUAUUACGACGG | -0.639 ± 0.11 | 0.382 ± 0.13
UUUAAGCAAUAUUACGACUG | -0.203 ± 0.097 | 0.954 ± 0.12
UUUAAGCAAUAUUACGAGUG | -1.38 ± 0.14 | -0.204 ± 0.13
UUUAAGCAAUAUUACGAUUA | -0.637 ± 0.1 | -0.207 ± 0.11
UUUAAGCAAUAUUACGCAGG | -0.857 ± 0.14 | -0.494 ± 0.2
UUUAAGCAAUAUUACGCCAG | -1.08 ± 0.15 | -0.457 ± 0.2
